Results as given in PMC9293207, “Impact of C‐terminal truncations in the Arabidopsis Rab escort protein (REP) on REP–Rab interaction and plant fertility” (The Plant Journal, 2021).

T1: REPΔC‐His, truncated form of REP lacking 30 C‐terminal amino acids (Arabidopsis thaliana, UniProt Q8LLD4 1-533)
T1 construct: Rab escort protein (REP) of Arabidopsis thaliana lacking 30 C‐terminal amino acids; cloned from pGWB551‐REP with primers BP‐rep‐F and BP‐rep‐R into pET301/CT‐DEST; Gateway cloning (pDONR201, pET301/CT‐DEST) may add linker residues between REP and the His tag; also called truncated mutant; truncated REP version; source: E. coli BL21(DE3)pLysS, purified (Ni‐NTA agarose)
T1 sequence (looked up): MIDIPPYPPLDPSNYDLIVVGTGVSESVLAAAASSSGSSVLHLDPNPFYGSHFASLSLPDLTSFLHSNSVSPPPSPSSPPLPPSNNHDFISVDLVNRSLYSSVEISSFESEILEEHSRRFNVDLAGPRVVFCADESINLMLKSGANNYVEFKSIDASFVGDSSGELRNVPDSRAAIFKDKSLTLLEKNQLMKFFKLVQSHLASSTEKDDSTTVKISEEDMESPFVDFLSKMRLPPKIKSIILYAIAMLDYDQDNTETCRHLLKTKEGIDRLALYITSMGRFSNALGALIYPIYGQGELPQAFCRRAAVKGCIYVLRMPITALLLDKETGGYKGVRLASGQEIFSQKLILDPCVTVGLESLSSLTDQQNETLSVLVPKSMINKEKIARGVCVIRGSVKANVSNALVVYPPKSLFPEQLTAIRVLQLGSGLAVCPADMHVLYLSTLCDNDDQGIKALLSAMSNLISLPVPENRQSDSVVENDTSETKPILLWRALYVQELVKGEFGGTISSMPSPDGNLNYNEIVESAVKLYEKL

T2: Rab escort protein (REP), recombinant REP‐His (Arabidopsis thaliana, UniProt Q8LLD4 1-563)
T2 construct: Rab escort protein (REP) of Arabidopsis thaliana, wild type; Plasmid was a gift (Dr. Michal Hala); HDX‐MS peptides are reported from region 1–14 to beyond amino acid 534, so the whole protein was probably present; also called WT REP; AtREP; source: E. coli BL21(DE3)pLysS, purified (Ni‐NTA agarose, HiTrapQ, Superdex 75)
T2 sequence (looked up): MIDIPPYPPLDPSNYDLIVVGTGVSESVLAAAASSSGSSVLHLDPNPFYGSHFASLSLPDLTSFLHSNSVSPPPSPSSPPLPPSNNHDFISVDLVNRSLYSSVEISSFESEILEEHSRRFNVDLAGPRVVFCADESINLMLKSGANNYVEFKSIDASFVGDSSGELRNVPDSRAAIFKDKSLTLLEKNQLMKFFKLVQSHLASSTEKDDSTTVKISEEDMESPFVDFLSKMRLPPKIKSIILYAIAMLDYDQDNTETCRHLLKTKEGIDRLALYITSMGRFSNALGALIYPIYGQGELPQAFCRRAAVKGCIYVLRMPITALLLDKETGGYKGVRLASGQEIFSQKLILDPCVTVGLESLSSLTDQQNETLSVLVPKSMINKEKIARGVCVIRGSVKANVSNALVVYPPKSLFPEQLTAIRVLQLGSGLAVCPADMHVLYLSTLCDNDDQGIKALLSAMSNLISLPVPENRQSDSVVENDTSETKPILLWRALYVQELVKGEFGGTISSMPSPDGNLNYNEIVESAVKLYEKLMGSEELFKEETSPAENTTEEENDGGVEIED

B1: GST‐Rab‐E1d (natural protein)
chain: not shown
notes: Rab‐E1d of Arabidopsis thaliana, cloned from Col‐0 leaf cDNA into pGEX4T1 cut with SmaI; unprenylated; Used in the presence of GDP; source: E. coli BL21(DE3)pLysS, purified (Glutathione‐Sepharose 4B, Superdex 75)
B2: Rab‐E1d cleaved from its GST tag (natural protein)
chain: not shown
notes: Rab‐E1d of Arabidopsis thaliana, from GST‐Rab‐E1d (pGEX4T1, SmaI) after thrombin cleavage; A few vector‐derived residues probably remain at the end after thrombin cleavage; also called E1d no tag; untagged Rab‐E1d
B3: GST‐Rab‐D1 (natural protein)
chain: not shown
notes: Rab‐D1 of Arabidopsis thaliana, cloned from Col‐0 leaf cDNA into pGEX4T1 cut with SmaI; unprenylated; Used in the presence of GDP; source: E. coli BL21(DE3)pLysS, purified (Glutathione‐Sepharose 4B, Superdex 75)
B4: GST‐Rab‐F2b (natural protein, Arabidopsis thaliana, UniProt Q9SN68 1-200, looked up)
chain: MAAAGNKSINAKLVLLGDVGAGKSSLVLRFVKDQFVEFQESTIGAAFFSQTLAVNDATVKFEIWDTAGQERYHSLAPMYYRGAAAAIIVFDVTNQASFERAKKWVQELQAQGNPNMVMALAGNKSDLLDARKVTAEDAQTYAQENGLFFMETSAKTATNVKEIFYEIARRLPRVQPTENPTGMVLPDRAMDRAVSSSCCA
notes: Rab‐F2b of Arabidopsis thaliana, cloned from Col‐0 leaf cDNA into pGEX4T1 cut with SmaI; unprenylated; Used in the presence of GDP; source: E. coli BL21(DE3)pLysS, purified (Glutathione‐Sepharose 4B, Superdex 75)

How the values were obtained:
Settings in all cases: both partners purified
[1] = target: T1, REPΔC‐His, truncated form of REP …; test: SEC; purified proteins diluted to 65 nM in 200 μl Tris 20 mM pH 7.5, 100 mM NaCl, 10 mM MgCl2, 1 mM DTT, 1.5 mM GDP, incubated 4 h at room temperature; Superdex 75 10/300 GL; fractions resolved by SDS‐PAGE
[2] = target: T2, Rab escort protein (REP), recombinant …; test: as above
[3] = target: T2, Rab escort protein (REP), recombinant …; test: HDX-MS; complexes of REP‐His with GST‐Rab from SEC against each protein alone (apo); 20 mM Tris‐DCl, 100 mM NaCl, 5 mM MgCl2, 1 mM GDP pH 7.5 in D2O; 10 sec, 1 min, 60 min; pepsin digestion; triplicate

| Binder | binding result [1] | binding result [2] | binding result [3] |
| --- | --- | --- | --- |
| B1 | binds | binds | – |
| B2 | – | binds | – |
| B3 | binds | – | binds |
| B4 | – | – | binds |
